# Measurements taken from article PMC3919607 (Nucleic Acids Research, 2013).
# T1: His6-tagged WT Snu13p (co-expression) (S. cerevisiae, UniProt P39990 1-126)
# T1 sequence (looked up): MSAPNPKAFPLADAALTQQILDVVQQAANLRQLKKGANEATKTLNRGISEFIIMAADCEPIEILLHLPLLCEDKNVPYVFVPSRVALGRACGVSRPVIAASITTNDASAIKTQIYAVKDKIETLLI
# T2: His6Rsa1p230–381 (S. cerevisiae, UniProt Q08932 230-381)
# T2 sequence (looked up): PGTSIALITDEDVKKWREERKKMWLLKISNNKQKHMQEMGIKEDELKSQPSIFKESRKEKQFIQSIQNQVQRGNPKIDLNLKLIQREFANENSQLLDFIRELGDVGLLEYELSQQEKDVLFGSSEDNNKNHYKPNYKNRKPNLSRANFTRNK
# B1: full-length Rsa1p (co-expression) (natural protein, S. cerevisiae, UniProt Q08932 1-381, looked up)
# chain: MNYNNFENSKGDGHSRLPKPTYSGTLSDGYDESKIKRQKTDSAFNAAYSPHMYPNSPYYEGSWNTGYTPQLHHVAPHNQYFHPIQPSTQYNYTSPPNYTENYIPPVHQNISYAPALNLQKWPSSYCENTQALKNDKDYQTSISYEDVAIPTVKEIQLIEKNRGKDTFMNEISPVPSSKDQASAEPTEIPRKDPELANSNAEDDHNNLGLEDDDRDEQLESEGLGKVVLVPGTSIALITDEDVKKWREERKKMWLLKISNNKQKHMQEMGIKEDELKSQPSIFKESRKEKQFIQSIQNQVQRGNPKIDLNLKLIQREFANENSQLLDFIRELGDVGLLEYELSQQEKDVLFGSSEDNNKNHYKPNYKNRKPNLSRANFTRNK
# B2: Snu13p (recombinant, GST cleaved off) (natural protein, S. cerevisiae)
# chain: GPMSAPNPKAFPLADAALTQQILDVVQQAANLRQLKKGANEATKTLNRGISEFIIMAADCEPIEILLHLPLLCEDKNVPYVFVPSRVALGRACGVSRPVIAASITTNDASAIKTQIYAVKDKIETLLI
# Legend:
# [1] = molecular target: T1, His6-tagged WT Snu13p (co-expression); experiment: pull-down
# [2] = molecular target: B2; experiment: ITC
# [3] = molecular target: T2, His6Rsa1p230–381; experiment: native gel or EMSA
binder,measurement,setting,value
B1,stoichiometry N,[1],~1
"TDEDVKKWREERKKMWLLKISN (peptide, UniProt Q08932 238-259, looked up) [synthetic peptide Rsa1p238–259]",Kd,[2],18 ± 1 µM
B2,binding result,[3],binds
